US6399321B1 (National Research Council of Canada, priority 1999, dated 2002)

Legend:
RUGT [1] = biological target: T1, RUGT (Rattus norvegicus, UniProt Q9JLA3); test: Glucosyltransferase assay: incorporation of 3H-glucose in glycoprotein acceptor-substrates by RUGT; assay type: biochemical; conditions: for RUGT activity towards denatured versus native substrate: reduced unfolded, heat-treated or urea-treated versus native protein
T1 construct: honeybee melittin signal peptide (21 aa, replaces the first 18 aa of RUGT) (N, cleaved yes); made in house; host or cells: Sf9 insect cells, baculovirus (pFastBac1); purified from culture medium
T1 sequence (Q9JLA3 43-1547 limits assumed): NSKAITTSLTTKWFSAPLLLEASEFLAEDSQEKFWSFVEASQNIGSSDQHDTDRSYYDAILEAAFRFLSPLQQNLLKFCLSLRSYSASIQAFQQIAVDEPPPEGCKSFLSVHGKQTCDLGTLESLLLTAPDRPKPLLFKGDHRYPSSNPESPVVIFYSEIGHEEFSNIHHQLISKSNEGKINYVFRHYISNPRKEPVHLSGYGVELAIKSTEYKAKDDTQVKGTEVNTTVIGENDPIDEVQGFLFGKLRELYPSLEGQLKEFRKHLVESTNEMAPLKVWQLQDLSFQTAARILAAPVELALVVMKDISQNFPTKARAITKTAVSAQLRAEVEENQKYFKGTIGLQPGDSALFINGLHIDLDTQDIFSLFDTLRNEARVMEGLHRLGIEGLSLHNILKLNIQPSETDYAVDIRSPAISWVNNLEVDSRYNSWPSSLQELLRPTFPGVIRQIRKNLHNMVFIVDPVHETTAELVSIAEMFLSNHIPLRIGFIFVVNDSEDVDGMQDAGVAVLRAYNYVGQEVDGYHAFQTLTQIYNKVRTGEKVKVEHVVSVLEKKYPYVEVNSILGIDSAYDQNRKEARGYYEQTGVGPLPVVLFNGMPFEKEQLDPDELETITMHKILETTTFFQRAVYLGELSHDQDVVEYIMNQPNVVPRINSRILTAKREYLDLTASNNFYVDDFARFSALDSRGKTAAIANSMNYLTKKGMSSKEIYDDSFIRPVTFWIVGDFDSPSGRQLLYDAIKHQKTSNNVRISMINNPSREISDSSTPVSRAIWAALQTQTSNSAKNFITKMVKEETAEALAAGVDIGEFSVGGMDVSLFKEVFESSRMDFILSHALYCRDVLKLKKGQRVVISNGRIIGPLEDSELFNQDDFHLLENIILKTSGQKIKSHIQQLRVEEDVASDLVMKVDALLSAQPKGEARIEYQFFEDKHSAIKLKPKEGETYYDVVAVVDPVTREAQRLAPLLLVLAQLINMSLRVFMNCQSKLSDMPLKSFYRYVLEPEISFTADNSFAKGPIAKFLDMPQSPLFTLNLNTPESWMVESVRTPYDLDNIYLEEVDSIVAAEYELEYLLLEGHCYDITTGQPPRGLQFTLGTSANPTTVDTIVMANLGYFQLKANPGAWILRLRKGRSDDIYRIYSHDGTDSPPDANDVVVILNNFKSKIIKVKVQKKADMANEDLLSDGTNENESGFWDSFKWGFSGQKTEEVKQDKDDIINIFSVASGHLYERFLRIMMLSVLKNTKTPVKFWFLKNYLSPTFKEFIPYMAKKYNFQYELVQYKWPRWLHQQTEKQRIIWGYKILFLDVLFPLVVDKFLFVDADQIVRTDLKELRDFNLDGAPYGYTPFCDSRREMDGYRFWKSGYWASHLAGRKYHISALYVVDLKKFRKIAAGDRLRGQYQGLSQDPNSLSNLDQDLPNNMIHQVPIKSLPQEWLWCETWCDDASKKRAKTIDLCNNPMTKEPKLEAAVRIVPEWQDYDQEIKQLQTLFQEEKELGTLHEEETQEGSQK
Method: Acid phosphatase was the major substrate glycoprotein used to determine RUGT activity in this study. RNase B was prepared as described elsewhere (Zapun, 1998). Soybean agglutinin (Sigma) was denatured by heating at 100° C. for 15 minutes. Bovine thyroglobulin (Sigma) was denatured with 8M urea and dialyzed against ddH2O. […] Amersham Life Science Inc.) and incubated at 37° C. for 2 hours. Reactions were either analyzed by SDS-PAGE followed by fluorography using Amplify (Amersham Life Science Inc.) or precipitated with ice-cold 10% trichloroacetic acid (TCA), washed twice with TCA and the pellets resuspended in 50 μl 1M Tris-HCl pH 8.0 before counting in a beta counter to quantitate the incorporation of ^3H-glucose in acid phosphatase.

acid phosphatase = test: Glucosylation of purified acid phosphatase by wild-type and mutant RUGT; assay type: biochemical, Saccharomyces cerevisiae; conditions: purified acid phosphatase as substrate
Method: Based on sequence alignments with other nucleoside diphosphate glycosyltransferases, four independent RUGT mutants D1334A, D1336A, Q1429A and N1433A were designed, amplified by PCR, cloned and sequenced to confirm the presence of diagnostic PstI, BsrBI, XbaI and NaeI sites respectively (FIG. 8).
Acid phosphatase was the major substrate glycoprotein used to determine RUGT activity in this study. RNase B was prepared as described elsewhere (Zapun, 1998). Soybean agglutinin (Sigma) was denatured by heating at 100° C. for 15 minutes. Bovine thyroglobulin (Sigma) was denatured with 8M urea and dialyzed against ddH2O. […] Reactions were either analyzed by SDS-PAGE followed by fluorography using Amplify (Amersham Life Science Inc.) or precipitated with ice-cold 10% trichloroacetic acid (TCA), washed twice with TCA and the pellets resuspended in 50 μl 1M Tris-HCl pH 8.0 before counting in a beta counter to quantitate the incorporation of ^3H-glucose in acid phosphatase.

RUGT [2] = biological target: T1, RUGT; test: Kinetics measurements: Km of UDP-glucose and acid phosphatase for RUGT; assay type: biochemical; conditions: in the presence of 5 μM UDP-glucose; read-out: apparent Km for acid phosphatase
Method: Acid phosphatase was the major substrate glycoprotein used to determine RUGT activity in this study. […] Soybean agglutinin (Sigma) was denatured by heating at 100° C. for 15 minutes. Bovine thyroglobulin (Sigma) was denatured with 8M urea and dialyzed against ddH2O. […] Reactions were either analyzed by SDS-PAGE followed by fluorography using Amplify (Amersham Life Science Inc.) or precipitated with ice-cold 10% trichloroacetic acid (TCA), washed twice with TCA and the pellets resuspended in 50 μl 1M Tris-HCl pH 8.0 before counting in a beta counter to quantitate the incorporation of ^3H-glucose in acid phosphatase.
Glucosylation reactions were incubated at 37° C. and TCA precipitated at various times up to 120 minutes to determine the rate of incorporation of ^3H-glucose in acid phosphatase.

Molecule	RUGT activity towards denatured versus native substrate (RUGT [1])	activity relative to the wild-type enzyme (incorporation of 3H-glucose) (acid phosphatase)	also measured
soybean agglutinin: soybean agglutinin (Sigma), denatured by heating at 100° C.; acceptor substrate [reference compound]	better substrates than the native proteins		
D1334A: recombinant rat UGGT (RUGT) mutant, D1334 mutated to alanine		no activity at all	
bovine thyroglobulin: bovine thyroglobulin (Sigma), denatured with 8M urea; acceptor substrate [reference compound]	better substrates than the native proteins		
N1433A: recombinant rat UGGT (RUGT) mutant, N1433 mutated to alanine		approximately 2%	
Q1429A: recombinant rat UGGT (RUGT) mutant, Q1429 mutated to alanine		~20%	
D1336A: recombinant rat UGGT (RUGT) mutant, D1336 mutated to alanine		no activity at all	
RNase B: bovine pancreatic ribonuclease B, glycoprotein acceptor substrate (protein, UniProt P61823 27-150, looked up, glycoform B, bovine pancreatic ribonuclease B, glycoprotein acceptor substrate) Ribonuclease pancreatic: KETAAAKFERQHMDSSTSAASSSNYCNQMMKSRNLTKDRCKPVNTFVHESLADVQAVCSQKNVACKNGQTNCYQSYSTMSITDCRETGSSKYPNCAYKTTQANKHIIVACEGNPYVPVHFDASV	greater activity towards reduced unfolded RNase B than towards the native protein		
acid phosphatase: yeast acid phosphatase purified from S. cerevisiae DT111, with asparagine-linked [GlcNAc]2-(Man)9 glycans; UGGT acceptor substrate (protein) GTIPLGKLADVDKIGTQKDIFPFLGGAGPYYSFPGDYGISRDLPEGCEMKQLQMVGRHGERYPTVSLAKTIKSTWYKLSNYTRQFNGSLSFLNDDYEFFIRDDDDLEMETTFANSDDVLNPYTGEMNAKRHARDFLAQYGYMVENQTSFAVFTSNSKRCHDTAQYFIDGLGDQFNITLQTVSEAESAGANTLSACNSCPAWDYDANDDIVNEYDTTYLDDIAKRLNKENKGLNLTSTDASTLFSWCAFEVNAKGYSDVCDIFTKDELVHYSYYQDLHTYYHEGPGYDIIKSVGSNLFNASVKLLKQSEIQDQKVWLSFTHDTDILNFLTTAGIIDDKNNLTAEYVPFMGNTFHRSWYVPQGARVYTEKFQCSNDTYVRYVINDAVVPIETCSTGPGFSCEINDFYDYAEKRVAGTDFLKVCNVSSVSNSTELTFYWDWNTTHYNASLLRQ			Km (RUGT [2]): 0.3 µM; incorporation of 3H-glucose on a molar basis relative to RNase B (RUGT [1]; assuming MW of 14 kDa for RNase B): 130 ×; incorporation of 3H-glucose on a molar basis relative to SBA (RUGT [1]; assuming MW of 31 kDa for SBA): 100 ×; incorporation of 3H-glucose on a molar basis relative to Tg (RUGT [1]; assuming MW of 303 kDa for Tg): 4 times
